“And” between values parts separate entries of the source, which are not always exact repeats. Identical values can stand only once.
Legend:
[1] = target: LC8 (dynein light chain, DYNLL1/DYNLL2) (Homo sapiens) (UniProt P63167); test: ITC; settings: cited from earlier work
[2] = target: rGKAP_(655–711), LC8-binding segment of Rattus norvegicus guanylate kinase-associated protein (GKAP), His tag removed (Rattus norvegicus) (UniProt P97836); test: dynamic light scattering; particle size of GKAP, LC8 dimer and their complex at 20 °C; W130i DLS device
[3] = target: 6xHis-tagged rGKAP_(655–711) (Rattus norvegicus) (UniProt P97836); test: BLI; 6xHis-tagged rGKAP655-711 immobilised on Ni-NTA biosensors (5 ug/mL, 90 s); LC8 dimers 3.125-50 uM, association and dissociation 90 s each; kinetic buffer 50 mM sodium phosphate, 20 mM NaCl, pH 6.0, 20 mM imidazole, 0.1% BSA, 0.02% Tween 20, 0.02% NaN3; sensors hydrated at 25 °C; global fit; BLItz
[4] = target: LC8 (dynein light chain, DYNLL1/DYNLL2) (Homo sapiens) (UniProt P63167); test: ITC; settings: cited from earlier work; remark: listed apart in the source
[5] = target: LC8 (dynein light chain, DYNLL1/DYNLL2) (Homo sapiens) (UniProt P63167); test: ITC; settings: cited from earlier work; remark: listed apart in the source
[6] = target: LC8 (dynein light chain, DYNLL1/DYNLL2) (Homo sapiens) (UniProt P63167); test: ITC; settings: cited from earlier work; remark: listed apart in the source
[7] = target: LC8 (dynein light chain, DYNLL1/DYNLL2) (Homo sapiens) (UniProt P63167); test: ITC; settings: cited from earlier work; remark: listed apart in the source
[8] = target: LC8 (dynein light chain, DYNLL1/DYNLL2) (Homo sapiens) (UniProt P63167); test: ITC; settings: cited from earlier work; remark: listed apart in the source
[9] = target: LC8 (dynein light chain, DYNLL1/DYNLL2) (Homo sapiens) (UniProt P63167); test: ITC; settings: cited from earlier work; remark: listed apart in the source
[10] = target: LC8 (dynein light chain, DYNLL1/DYNLL2) (Homo sapiens) (UniProt P63167); test: ITC; settings: cited from earlier work; remark: listed apart in the source
[11] = target: LC8 (dynein light chain, DYNLL1/DYNLL2) (Homo sapiens) (UniProt P63167); test: ITC; settings: cited from earlier work; remark: listed apart in the source
[12] = target: LC8 (dynein light chain, DYNLL1/DYNLL2) (Homo sapiens) (UniProt P63167); test: ITC; settings: cited from earlier work; remark: listed apart in the source
[13] = target: LC8 (dynein light chain, DYNLL1/DYNLL2) (Homo sapiens) (UniProt P63167); test: ITC; settings: cited from earlier work; remark: listed apart in the source
[14] = target: LC8 (dynein light chain, DYNLL1/DYNLL2) (Homo sapiens) (UniProt P63167); test: ITC; settings: cited from earlier work; remark: listed apart in the source
[15] = target: LC8 (dynein light chain, DYNLL1/DYNLL2) (Homo sapiens) (UniProt P63167); test: ITC; settings: cited from earlier work; remark: listed apart in the source
[16] = target: LC8 (dynein light chain, DYNLL1/DYNLL2) (Homo sapiens) (UniProt P63167); test: ITC; settings: cited from earlier work; remark: listed apart in the source
[17] = target: LC8 (dynein light chain, DYNLL1/DYNLL2) (Homo sapiens) (UniProt P63167); test: ITC; settings: cited from earlier work; remark: listed apart in the source
[18] = target: LC8 (dynein light chain, DYNLL1/DYNLL2) (Homo sapiens) (UniProt P63167); test: ITC; settings: cited from earlier work; remark: listed apart in the source
[19] = target: LC8 (dynein light chain, DYNLL1/DYNLL2) (Homo sapiens) (UniProt P63167); test: ITC; settings: cited from earlier work; remark: listed apart in the source
[20] = target: LC8 (dynein light chain, DYNLL1/DYNLL2) (Homo sapiens) (UniProt P63167); test: ITC; settings: cited from earlier work; remark: listed apart in the source
[21] = target: LC8 (dynein light chain, DYNLL1/DYNLL2) (Homo sapiens) (UniProt P63167); test: ITC; settings: cited from earlier work; remark: listed apart in the source
[22] = target: LC8 (dynein light chain, DYNLL1/DYNLL2) (Homo sapiens) (UniProt P63167); test: ITC; settings: cited from earlier work; remark: listed apart in the source

Chain of UniProt P63167 (P63167 whole entry): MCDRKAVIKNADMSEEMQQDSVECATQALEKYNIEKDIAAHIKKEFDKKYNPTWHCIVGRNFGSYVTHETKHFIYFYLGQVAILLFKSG

Row | Substance | Kd [1] | other results
1 | CEP152 | 2.37 µM | –
2 | Kib1 | 0.45 µM | –
3 | dynein light chain LC8 (DYNLL2, DLC2), Rattus norvegicus, dimer (natural protein) | – | stoichiometry N (LC8 dimers per GKAP segment (2 : 2)) [2]: 1; Kd [3]: 0.29 µM; koff [3]: 0.0025 s⁻¹; kon [3]: 8800 M⁻¹ s⁻¹
4 | Myosin Va | 8.85 µM | –
5 | AMOTL1 | 1.55 µM | –
6 | Kib2 | 4 µM | –
7 | dyn intermediate chain (ICTL) | 0.5 µM | Kd [4]: 8 µM; Kd [5]: 8 µM
8 | IQUB | 3.57 µM | –
9 | protein panoramix | 0.14 µM | Kd [6]: 0.075 µM
10 | EML3 | 0.05 µM | –
11 | Pak1 | 42.7 µM | –
12 | Swa | 0.62 µM | –
13 | WWC1 | 4 µM | Kd [7]: 0.45 µM
14 | WWC2 | 32.7 µM | Kd [8]: 17.6 µM
15 | AMOTL2 | 1.98 µM | –
16 | IC | 3 µM | –
17 | AKAP9 | 12.4 µM | –
18 | ASCIZ | 20 µM | Kd [9]: 15 µM; Kd [10]: 36 µM; Kd [11]: 9.3 µM; Kd [12]: 15 µM; Kd [13]: 7 µM; Kd [14]: 10 µM; Kd [15]: 14 µM; Kd [16]: 11 µM
19 | bmf | 0.79 µM | –
20 | Restv | 62.1 µM | –

Row | Substance | Kd [1] | other results
21 | Bim | 0.52 µM | –
22 | ana2 | 12.8 µM | Kd [17]: 1.14 µM
23 | vp35 virus | 3.91 µM | Kd [18]: 3.91 µM
24 | nNOS | 5.41 µM and 7 µM | –
25 | WWC3 | 5.34 µM | Kd [19]: 3.5 µM
26 | 53BP1 | 1 µM | Kd [20]: 0.62 µM; Kd [21]: 5.2 µM
27 | MAP4 | 4.42 µM | –
28 | CDK5RAP2 | 12.5 µM | –
29 | AMOT | 1.2 µM | –
30 | CFAP91 | 0.55 µM | –
31 | LCA5 | 2.6 µM and 8.1 µM | –
32 | ALMS1 | 19.2 µM | –
33 | myosin Va | 9 µM | –
34 | OFD1 | 12.5 µM and 12.8 µM | –
35 | GKAP | 2.4 µM | –
36 | Sudv | 6.45 µM | –
37 | L-MAG | 7.3 µM | –
38 | SAO-1 | 0.5 µM | Kd [22]: 0.5 µM
39 | NUP159 | 1 µM | –
40 | NEK9 | 0.16 µM | –

Reference: PMC12797016
